For data set [1], the system named is GFP double loop insertion mutant at positions 157-158 and 174-175 with GGGG-LETD-GGGGG (caspase 8 sites).
Data set [2] relates to GFP double insertion mutant K157-Q158 and D174-G175 (cathepsin L sites).
For data set [3], the system named is GFP single insertion mutant D174-G175 (GGGGFFRSGGGG inserted).
Data set [4] concerns GFP single insertion mutant G117-D118 (GGGGFFRSGGGG inserted).
Data set [5] deals with GFP single insertion mutant K102-D103 (GGGGFFRSGGGG inserted).
Data set [6] deals with GFP single insertion mutant K157-Q158 (GGGGFFRSGGGG inserted).
Data set [7] has as its system GFP single insertion mutant T39-Y40 (GGGGFFRSGGGG inserted).
Data set [8] deals with recombinant GFP-His protein (wild type GFP).
Data set [9] relates to substitution mutants (GFP sequence substituted with FRS at various positions; fifteen fluorescent of twenty).

cathepsin L, sequence (chain, as listed by the source): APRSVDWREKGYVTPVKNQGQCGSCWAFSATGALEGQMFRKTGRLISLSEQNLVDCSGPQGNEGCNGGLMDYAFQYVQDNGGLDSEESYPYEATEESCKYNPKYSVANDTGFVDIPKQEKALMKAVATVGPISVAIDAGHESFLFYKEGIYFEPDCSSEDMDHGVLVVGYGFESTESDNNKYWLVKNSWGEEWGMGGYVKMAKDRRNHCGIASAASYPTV

With caspase 8, in [1], the “Cleavage at sequence introduced” value is “(yes)”.
For the substance cathepsin L, the “Cleavage at sequence introduced” value in data set [2] was “(yes)”; in [3], “Yes”; in data set [4], “No”; in data set [5], “Yes”; in data set [6], “Yes”; in [7] it was “Yes”. In [8], the “GFP fluorescence and SDS-PAGE band on incubation with 400 nM cathepsin L at pH 5.5 and 4.8” value was “A time-dependent decrease in GFP fluorescence was observed (FIG. 10A), with concommitant disappearance of the GFP band on SDS-PAGE”. The “specific cleavage (SDS-PAGE)” value in data set [9] was “fifteen mutants were fluorescent and therefore properly folded, but only one of them was specifically cleaved by cathepsin L”.

The values are drawn from US20040042961.
